Experimental data from patent US20020123082A1.

Target: human p27, wild type (human) (UniProt P46527)
Experiment: cell-based or functional assay

Chain of human p27, wild type (human) (P46527 whole entry): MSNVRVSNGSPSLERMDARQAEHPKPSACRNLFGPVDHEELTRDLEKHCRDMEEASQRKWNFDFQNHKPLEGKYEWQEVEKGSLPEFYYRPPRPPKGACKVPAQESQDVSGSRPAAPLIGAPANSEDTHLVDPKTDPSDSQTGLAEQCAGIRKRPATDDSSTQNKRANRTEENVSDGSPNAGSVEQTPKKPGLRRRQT

p27 half-life, pulse chase analysis in NIH-3T3 cells: 3 h
Substance: (ΔF)Skp2, F-box deleted Skp2 mutant lacking residues 113-152 (from UniProt Q13309 1-112; Q13309 141-424)
